Measurements: PMC7662849 (2020)
Groups on a side chain read outwards from the residue.

Biological target: T1, H3(E5)2 branched peptide (not fully specified)
T1 chain: Ac-EEEEEGGK([Gly-Gly-Kme3‑VGGTAPAS])GGEEEEE-NH2
Assay: NMR titration

B1: PSIP1 (LEDGF) PWWP domain PWWP (protein)
chain: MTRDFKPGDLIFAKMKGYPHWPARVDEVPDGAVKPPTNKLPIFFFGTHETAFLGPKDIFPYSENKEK
Binder B1 has a Kd of 360 µM.
